± gives the standard deviation of the averaged measurements.
Test system: Saccharomyces cerevisiae
Experiment: protein stability index of tFT-peptide fusion (C-terminal peptide) (PSI (0-1 scale)); higher = more stable (slower turnover)
Details: genetic background: wild type; temperature: 30 C
Experimental: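 Multiplexed protein stability (MPS) profiling in S. cerevisiae. Random 12-aa peptides (tFT-X12 library) are fused to the C-terminus of a sfGFP-mCherry tandem fluorescent timer, after mCherry and a GGGS linker. Cells are FACS-sorted into 8 mCherry/sfGFP bins and deep-sequenced. The protein stability index (PSI) is the read-weighted bin average, scaled from 0 (unstable) to 1 (stable). Only peptides with >10 reads are reported; cells were grown at 30 °C in SC-His with glucose.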
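Further: PSI is a weighted mean of sequencing reads over stability bins, variants kept only with over 10 reads, mCherry proximal and sfGFP distal, peptide attached via GGGS linker.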

Sequence	protein stability index
AVKRNDALGIQF	0.718 ± 0.046
AVLFDQLGGRWR	0.614 ± 0.061
AVLTDKKGRVRS	0.703 ± 0.036
AVLTLRAPPSAL	0.708 ± 0.025
AVPRPSPPPPPL	0.674 ± 0.0086
AVQESVSHSLVL	0.723 ± 0.0012
AVRLALAPQVGA	0.617 ± 0.018
AVRPGEAGCAGL	0.664 ± 0.12
AVRSILYRVATR	0.729 ± 0.06
AVVVDWLAQVLH	0.757 ± 0.068
AVYRPFPFRSGI	0.699 ± 0.015
AWCGGVVGVAWL	0.6661 ± 0.0062
AWCLLTRWDLLL	0.609 ± 0.0014
AYGVGQERWVRE	0.725 ± 0.061
AYKCLPAKGADS	0.695 ± 0.047
AYLCLLPPFFTV	0.674 ± 0.037
AYQFLCFSGMIT	0.761 ± 0.27
AYSMMNLYNFAL	0.67 ± 0.014
AYVSLRASLLSS	0.633 ± 0.063
CAGRVWVGLCGV	0.685 ± 0.094
CARYFFLHPSLG	0.67961 ± 1.3e-05
CASPSPPPAPVL	0.68 ± 0.022
CCGLYLGAGCAY	0.674 ± 0.017
CCLFLACANFFV	0.551 ± 0.031
CCLSFMSPFFCF	0.75 ± 0.026
CCVSFFISFGGR	0.554 ± 0.03

Sequence	protein stability index
CCVYFLSMFFVL	0.575 ± 0.026
CDCIAFISRSFS	0.675 ± 0.039
CDGPFRLVLGGG	0.672 ± 0.018
CDRVIGSRGVTY	0.688 ± 0.0071
CEAWLTDEGLRD	0.742 ± 0.016
CERHWADRNTSV	0.7445 ± 0.0064
CFCWLFLVGRAD	0.5734 ± 0.0024
CFCYSLSINLNL	0.522 ± 0.0072
CFGFAGVGSLSC	0.752 ± 0.13
CFGFSLKFGTGK	0.668 ± 0.033
CFKETLLKGSRQ	0.718 ± 0.034
CFLPACPSPGDS	0.737 ± 0.075
CFLPGFYFLFSI	0.561 ± 0.033
CFPLPRPLPYME	0.654 ± 0.12
CFSCLWVPLLPS	0.649 ± 0.008
CFSMGKRGLRGR	0.686 ± 0.026
CFSSLRFCLPSV	0.686 ± 0.00021
CFVSFFWRCFFG	0.515 ± 0.045
CFWTSFVWPGCA	0.684 ± 0.00095
CGAGIYTRCTGR	0.6613 ± 0.001
CGALRLPSSREV	0.604 ± 0.021
CGGKTEKRKKYT	0.6062 ± 0.0034
CGGRKTPPPPRH	0.688 ± 0.054
CGGRWGTYYRRV	0.7 ± 0.042
CGGSCLQDGGWA	0.787 ± 0.1
CGHMSTSNANLS	0.687 ± 0.051

Sequence	protein stability index
CGLGGLYLVLHD	0.671 ± 0.067
CGLRVVGVVGAP	0.712 ± 0.062
CGLSYSAVDLGV	0.684 ± 0.01
CGPRPDSIDVGF	0.608 ± 0.052
CGRFCLQGEYIV	0.705 ± 0.12
CGRPRGVEPGGA	0.754 ± 0.12
CGSDRINACVRI	0.727 ± 0.032
CGSVEVVVVRGS	0.587 ± 0.054
CGTPDLGLLRAT	0.74 ± 0.054
CGVSPPHANLVS	0.569 ± 0.036
CGVVSSSVDCIN	0.699 ± 0.028
CHYSSFISFVVV	0.594 ± 0.024
CICFLDGCSFVN	0.755 ± 0.14
CIFCCGWCLDRL	0.719 ± 0.058
CIFFSPFSFLLP	0.654 ± 0.035
CILPFFFFVSPD	0.652 ± 0.084
CIRGFQVRGYFK	0.791 ± 0.19
CIVDFLGISSGI	0.659 ± 0.057
CKKGCTEVKNAV	0.719 ± 0.084
CLAPSIPPPLSS	0.702 ± 0.036
CLFPPTARHSFP	0.778 ± 0.036
CLFPPYDYFFPF	0.734 ± 0.091
CLGPDWWARRSI	0.772 ± 0.064
CLGRLRLMSSCR	0.688 ± 0.044
CLLAAMTFYTVR	0.711 ± 0.029
CLPSLPPFPASL	0.738 ± 0.064

Sequence	protein stability index
CLQRPVSAGMVT	0.676 ± 0.027
CLSGVLDFLLFL	0.648 ± 0.0085
CLSILRNVVPII	0.723 ± 0.08
CLSLVCGFPVVY	0.605 ± 0.0099
CLTHLLPPAFPC	0.694 ± 0.018
CMEYFMHFVKGD	0.701 ± 0.06
CMFRCCLRSLVL	0.639 ± 0.0064
CMGASRTRILTR	0.681 ± 0.046
CNCGGRGCGWMR	0.651 ± 0.025
CNDAYKSKLARL	0.696 ± 0.034
CNGVGRLPGTPG	0.685 ± 0.0086
CNQRRWRGRKGY	0.67 ± 0.01
CPCAWFSFLCFS	0.666 ± 0.0066
CPPPFLCSPFVA	0.669 ± 0.022
CPPPPPRPPLPP	0.689 ± 0.056
CPPVRLSLPPSL	0.68 ± 0.019
CPSSFSALSNSR	0.671 ± 0.049
CQFHHHPDLTIK	0.609 ± 0.077
CRASGGVSCGAS	0.639 ± 0.046
CRCTKVVVFGYP	0.667 ± 0.022
CRGPTQFAGPAP	0.68 ± 0.088
CRILSPLPAIFV	0.5298 ± 0.0045
CRLILLVCNGAG	0.521 ± 0.027
CRSGSGGGIRGR	0.741 ± 0.011
CRSRRPFGSDPI	0.69 ± 0.019
CRTGHCRLTSKM	0.708 ± 0.019

Sequence	protein stability index
CRVWRAPSGWVG	0.646 ± 0.03
CRWRLGRLARCA	0.515 ± 0.0084
CSATVLSNCTFP	0.687 ± 0.051
CSEHFLIDTYPA	0.679 ± 0.05
CSLGCSLSALDS	0.663 ± 0.025
CSMGGWPTERGI	0.6968 ± 0.0039
CSPGLSGCVSYV	0.665 ± 0.12
CSRDWRCNVRPV	0.715 ± 0.022
CSSEGFSLASMI	0.707 ± 0.025
CSWNLLAHPPAQ	0.744 ± 0.0093
CSYIQTSKTVVS	0.756 ± 0.082
CTAVGFISFWMA	0.629 ± 0.081
CTIAPSIFFTRG	0.704 ± 0.11
CTVWGLWRGWTA	0.7389 ± 0.0041
CVAGSGRGGVKR	0.6327 ± 0.0037
CVCHWTALCIQI	0.512 ± 0.013
CVFSEMIVCDGG	0.566 ± 0.049
CVGQYVHWDLLV	0.549 ± 0.011
CVIGDKRRSKAI	0.6808 ± 0.0021
CVLPVSVIWVLR	0.575 ± 0.018
CVLVGGVPAGGG	0.6174 ± 0.0028
CVLWLISLLPDR	0.563 ± 0.068
CVRPAPGSGGWQ	0.6429 ± 0.0041
CVTLPPHPLPPP	0.6623 ± 0.0058
CWGGRSYVYNIG	0.662 ± 0.016
CWNVLVPFDEVI	0.6 ± 0.08

Sequence	protein stability index
CWSRLADSFVSL	0.683 ± 0.05
CYGFCVRTYPAI	0.684 ± 0.037
CYLSVGVASWNS	0.6816 ± 0.0026
DAACDSGLSAEW	0.722 ± 0.015
DAAFRMTRLVVR	0.6172 ± 0.0015
DAGRETGRLVGG	0.708 ± 0.032
DAIHSPALLASP	0.715 ± 0.092
DALVQVFANVGA	0.6629 ± 0.0059
DALWLAFFDVID	0.711 ± 0.068
DARLSPVRNRLF	0.652 ± 0.17
DASVIPAKPRRS	0.69 ± 0.041
DAVVPSSTVPLL	0.7001 ± 0.0022
DCDVLCGSGRRR	0.703 ± 0.026
DCLFQSKLNTYD	0.676 ± 0.041
DCNQLRGRAFRL	0.719 ± 0.034
DCPAVLLYAVNW	0.501 ± 0.054
DCVACFFFYSGG	0.599 ± 0.0099
DCWAGGGLCGWG	0.719 ± 0.05
DDCFCGRFWVVV	0.6787 ± 0.0032
DEEVGWGRGGGW	0.673 ± 0.011
DENLYGGFRTSM	0.725 ± 0.0078
DFCPCPRWFLRR	0.715 ± 0.086
DFIAGGSRPFLV	0.715 ± 0.015
DFIEINFDLFPP	0.6382 ± 0.00098
DFLRCPPLFEFS	0.721 ± 0.087

Reference: the supplement of paper PMC10724198
